Measurements published in publication doi:10.1101/790931, “Pal stabilises the bacterial outer membrane during constriction by a mobilisation-and-capture mechanism” (bioRxiv, 2019).
No end group written: not given here.

Target: T1, C-terminal domain of Pseudomonas aeruginosa TolA (TolA^224-347) (Pseudomonas aeruginosa, UniProt P50600 224-347)
T1 construct: TolA, Pseudomonas aeruginosa, C-terminal domain, residues 224-347; Uniformly 15N- or 13C/15N-labelled for the NMR experiments, unlabelled for fluorescence anisotropy; also called wild-type TolA (residues 224-347); C-terminal domain of TolA; not shown: His tag, N-terminal, cleaved; Im9, N-terminal, cleaved
T1 sequence (looked up): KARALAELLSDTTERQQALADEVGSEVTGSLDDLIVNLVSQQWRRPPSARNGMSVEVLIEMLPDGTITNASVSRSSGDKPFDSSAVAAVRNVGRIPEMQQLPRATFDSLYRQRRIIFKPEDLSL
Assay: NMR titration; TolB peptide added to 0.6 mM 15N-labelled TolA; 1H,15N-HSQC; 20 mM phosphate, 100 mM NaCl, pH 7.6; slow exchange, ratio of bound and free peak volumes; fits for Ser271, Ser306, Gly316, Leu347
Conditions: both partners purified

B1: P. aeruginosa TolB[22-34] peptide (the TolA box) (peptide)
peptide: ADPLVISSGNDRA-NH2
notes: TolB, Pseudomonas aeruginosa, residues 22-34, the N-terminus of secreted TolB; also called TolB[22-33]; (in supplementary legends); N-terminus of TolB; source: synthetic peptide (thinkpeptides UK (ProImmune))
**Q.** With B1 as the binder, how does the Kd read?
**A.** 220 µM
